Legend:
[1] = molecular target: KCNQ1-KCNQ1 dimer (QQ) of the tandem EQQ construct with I145C in the distal KCNQ1 subunit (human); assay: cross-linking
[2] = molecular target: KCNQ1-KCNQ1 dimer (QQ) of the tandem EQQ construct with I145C in the proximal KCNQ1 subunit (human); assay: cross-linking

percent cross-linking [1]: 50%
percent cross-linking [2]: 90%
Substance: KCNE1 K41C subunit of the tandem EQQ construct, cut off by HRV-3C protease (natural protein)

Reference: publication PMC3269792
